Where no end group is shown, it is not given here.
Legend:
[1] = Small animal PET, whole-body distribution of 68Ga-labelled polypeptide (Example 11); type: in vivo, 랫트; settings: after i.v. injection, […] scan
인간 혈청 함유 IgG = type: binding
[2] = Melting temperature (Tm) by circular dichroism, variable temperature (Example 3); type: physicochemical; settings: higher Tm with N-terminal serine
인간 혈청 알부민(HSA) [3] = target: T1, 인간 혈청 알부민(HSA) (Homo sapiens, UniProt P02768); assay: Biacore (SPR) affinity for immobilised HSA (Example 2); type: binding; settings: as in Example 2; data not shown
T1 construct: purchased Novozymes

CSA = target: T2, CSA (Macaca fascicularis, UniProt A2V9Z4); assay: Biacore affinity for albumin of various species: cynomolgus (Example 7); type: binding, 필리핀 원숭이; settings: range stated over all five species
T2 construct: CSA(cynomolgus 혈청으로부터 얻어 in-house 정제시킴); from tissue; host or cells: cynomolgus serum

MSA = target: T3, MSA (Mus musculus, UniProt P07724); assay: Biacore affinity for albumin of various species: mouse (Example 7); type: binding, 마우스; settings: range stated over all five species
T3 construct: purchased Sigma-Aldrich A3559

RSA = target: T4, RSA (Rattus norvegicus, UniProt P02770); assay: Biacore affinity for albumin of various species: rat (Example 7); type: binding, 랫트; settings: range stated over all five species
T4 construct: purchased Sigma-Aldrich A6272

DSA = target: T5, DSA (Canis lupus familiaris, UniProt P49822); assay: Biacore affinity for albumin of various species: dog (Example 7); type: binding, 개; settings: range stated over all five species
T5 construct: purchased MP Biomedicals 55925

인간 혈청 알부민(HSA) [4] = target: T1, 인간 혈청 알부민(HSA); assay: Biacore affinity for albumin of various species: human (Example 7); type: binding
[5] = Stability to heat, CD analysis of structural reversibility (Example 10); type: physicochemical
HSA = target: T6, HSA (Homo sapiens, UniProt P02768); assay: Stability to heat and low pH, biosensor analysis of HSA binding (Example 10); type: physicochemical, 인간; settings: 90℃, 10 min, pH 4.0
T6 construct: purchased Novozymes

T5 sequence (P49822 25-608): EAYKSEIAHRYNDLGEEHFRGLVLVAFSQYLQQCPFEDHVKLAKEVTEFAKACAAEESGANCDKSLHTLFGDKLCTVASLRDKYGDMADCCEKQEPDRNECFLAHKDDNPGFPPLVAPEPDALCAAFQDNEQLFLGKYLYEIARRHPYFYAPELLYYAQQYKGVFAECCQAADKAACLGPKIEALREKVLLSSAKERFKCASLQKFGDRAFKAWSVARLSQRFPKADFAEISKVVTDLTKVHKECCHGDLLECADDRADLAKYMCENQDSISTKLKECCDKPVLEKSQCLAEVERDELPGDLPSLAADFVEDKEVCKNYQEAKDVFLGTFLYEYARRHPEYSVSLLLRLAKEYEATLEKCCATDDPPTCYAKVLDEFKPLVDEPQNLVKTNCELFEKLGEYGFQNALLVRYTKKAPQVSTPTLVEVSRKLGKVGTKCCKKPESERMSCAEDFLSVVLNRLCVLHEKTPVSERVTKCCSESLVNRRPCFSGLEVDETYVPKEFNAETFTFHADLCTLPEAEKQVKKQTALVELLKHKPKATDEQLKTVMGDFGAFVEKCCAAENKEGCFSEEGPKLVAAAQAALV
T3 sequence (P07724 25-608): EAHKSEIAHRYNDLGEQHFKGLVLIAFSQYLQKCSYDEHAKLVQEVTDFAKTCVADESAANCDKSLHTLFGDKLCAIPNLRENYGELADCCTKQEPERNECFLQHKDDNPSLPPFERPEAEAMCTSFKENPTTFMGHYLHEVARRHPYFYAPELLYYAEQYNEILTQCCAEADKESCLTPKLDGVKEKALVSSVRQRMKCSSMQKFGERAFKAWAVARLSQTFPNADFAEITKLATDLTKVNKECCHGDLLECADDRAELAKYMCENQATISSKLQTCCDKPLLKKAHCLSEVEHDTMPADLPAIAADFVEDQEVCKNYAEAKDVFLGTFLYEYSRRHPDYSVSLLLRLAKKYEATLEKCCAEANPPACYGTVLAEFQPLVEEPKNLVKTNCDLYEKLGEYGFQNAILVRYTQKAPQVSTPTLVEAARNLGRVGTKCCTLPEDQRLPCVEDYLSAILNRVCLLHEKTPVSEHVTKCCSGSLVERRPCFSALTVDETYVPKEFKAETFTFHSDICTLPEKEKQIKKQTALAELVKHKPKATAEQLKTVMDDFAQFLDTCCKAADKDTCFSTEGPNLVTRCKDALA
T2 sequence (A2V9Z4 25-608): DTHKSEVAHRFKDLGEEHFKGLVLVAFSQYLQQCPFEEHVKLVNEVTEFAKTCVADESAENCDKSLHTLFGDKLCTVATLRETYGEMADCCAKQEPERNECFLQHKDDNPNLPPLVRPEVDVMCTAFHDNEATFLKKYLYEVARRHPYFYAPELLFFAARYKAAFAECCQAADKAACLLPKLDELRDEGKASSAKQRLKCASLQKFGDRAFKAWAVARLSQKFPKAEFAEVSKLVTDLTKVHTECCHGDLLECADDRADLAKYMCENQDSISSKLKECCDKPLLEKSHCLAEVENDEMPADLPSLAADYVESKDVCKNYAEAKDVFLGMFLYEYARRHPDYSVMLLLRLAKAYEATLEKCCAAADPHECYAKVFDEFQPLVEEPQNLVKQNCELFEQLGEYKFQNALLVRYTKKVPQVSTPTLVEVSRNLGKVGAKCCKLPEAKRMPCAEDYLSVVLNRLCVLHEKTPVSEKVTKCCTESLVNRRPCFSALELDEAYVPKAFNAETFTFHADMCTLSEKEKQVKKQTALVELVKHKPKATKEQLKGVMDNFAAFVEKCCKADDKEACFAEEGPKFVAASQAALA
T4 sequence (P02770 25-608): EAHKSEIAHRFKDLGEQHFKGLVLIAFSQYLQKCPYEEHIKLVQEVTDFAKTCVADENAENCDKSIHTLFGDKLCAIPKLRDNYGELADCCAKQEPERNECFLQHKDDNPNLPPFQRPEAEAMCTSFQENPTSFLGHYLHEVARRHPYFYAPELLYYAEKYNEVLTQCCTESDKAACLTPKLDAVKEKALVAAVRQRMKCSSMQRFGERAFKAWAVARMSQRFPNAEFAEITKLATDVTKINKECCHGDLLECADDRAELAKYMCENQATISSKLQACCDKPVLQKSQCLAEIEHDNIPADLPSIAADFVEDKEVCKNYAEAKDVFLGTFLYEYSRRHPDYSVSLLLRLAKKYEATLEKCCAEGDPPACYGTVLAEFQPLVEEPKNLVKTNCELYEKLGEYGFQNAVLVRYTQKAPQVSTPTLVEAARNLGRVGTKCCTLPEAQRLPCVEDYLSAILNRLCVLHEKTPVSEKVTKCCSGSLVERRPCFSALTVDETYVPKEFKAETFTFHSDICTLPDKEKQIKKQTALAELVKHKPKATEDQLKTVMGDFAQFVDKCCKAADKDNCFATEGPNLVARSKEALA

68Ga-PEP08296: 68Ga-labelled PEP08296 (DOTA-conjugated PEP08185, SEQ ID NO:148) (GSLAEAKEAANAELDCYGVSDFYKRLIDKAKTVEGVEALKDAILAALPG; also: DOTA chelator conjugated, place not given here, 68Ga label)
Plasma clearance [1]: 매우 느린

CC[C@H](C)[C@H](NC(=O)[C@H](C)NC(=O)[C@H](CC(=O)O)NC(=O)[C@H](CCCCN)NC(=O)[C@H](CC(C)C)NC(=O)[C@H](C)NC(=O)[C@H](CCC(=O)O)NC(=O)[C@@H](NC(=O)CNC(=O)[C@H](CCC(=O)O)NC(=O)[C@@H](NC(=O)[C@@H](NC(=O)[C@H](CCCCN)NC(=O)[C@H](C)NC(=O)[C@H](CCCCN)NC(=O)[C@H](CC(=O)O)NC(=O)[C@@H](NC(=O)[C@H](CC(C)C)NC(=O)[C@H](CCCNC(=N)N)NC(=O)[C@H](CCCCN)NC(=O)[C@H](Cc1ccc(O)cc1)NC(=O)[C@H](Cc1ccccc1)NC(=O)[C@H](CC(=O)O)NC(=O)[C@H](CO)NC(=O)[C@@H](NC(=O)CNC(=O)[C@H](Cc1ccc(O)cc1)NC(=O)[C@H](CSC1CC(=O)N(CCNC(=O)CN2CCN(CC(=O)O)CCN(CC(=O)O)CCN(CC(=O)O)CC2)C1=O)NC(=O)[C@H](CC(=O)O)NC(=O)[C@H](CC(C)C)NC(=O)[C@H](CCC(=O)O)NC(=O)[C@H](C)NC(=O)[C@H](CC(N)=O)NC(=O)[C@H](C)NC(=O)[C@H](C)NC(=O)[C@H](CCC(=O)O)NC(=O)[C@H](CCCCN)NC(=O)[C@H](C)NC(=O)[C@H](CO)NC(=O)[C@H](C)NC(=O)[C@H](CC(C)C)NC(=O)CN)C(C)C)[C@@H](C)CC)[C@@H](C)O)C(C)C)C(C)C)C(=O)N[C@@H](CC(C)C)C(=O)N[C@@H](C)C(=O)N[C@@H](C)C(=O)N[C@@H](CC(C)C)C(=O)N1CCC[C@H]1C(=O)O (some centres unmarked) [PEP07968]
Immunogenicity classification (CD3+ CD4+ T 세포): 비-면역원성
Number of responding individuals compared with buffer only (CD3+ CD4+ T 세포): 1 명
Reactivity with human serum IgG (mean OD and proportion of sera binding) (인간 혈청 함유 IgG): 가장 낮은 반응도

PEP07554: albumin binding polypeptide variant, SEQ ID NO:156 (GSS + PP007 sequence) (GSSLASAKEAANAELDSYGVSDFYKRLIDKAKTVEGVEALKDAILAALP; Engineered albumin-binding polypeptide)
Tm difference, N-terminal serine vs glycine at the same position (PEP07554 vs PEP07912) [2]: 5 °C

PEP07975: maleimide-DOTA-conjugated PEP07834 (SEQ ID NO:160), C-terminal amide, chemically synthesised (ALASAKEAANAELDCYGVSDFYKRLIDKAKTVEGVEALKDAILAALP-NH2; also: maleimide-DOTA conjugate, place not given here)
Binding activity to HSA (인간 혈청 알부민(HSA) [3]): 확인하였으며

PEP08296: DOTA-conjugated PEP08185 (SEQ ID NO:148) (GSLAEAKEAANAELDCYGVSDFYKRLIDKAKTVEGVEALKDAILAALPG; also: DOTA conjugate, place not given here)
KD for CSA (CSA): 높은 친화성(KD가 피코몰 미만으로부터 나노몰 미만까지의 범위에 속함)
KD for MSA (MSA): 높은 친화성(KD가 피코몰 미만으로부터 나노몰 미만까지의 범위에 속함)
KD for RSA (RSA): 높은 친화성(KD가 피코몰 미만으로부터 나노몰 미만까지의 범위에 속함)
KD for DSA (DSA): 높은 친화성(KD가 피코몰 미만으로부터 나노몰 미만까지의 범위에 속함)
Rank order of relative affinity for albumins of the species (인간 혈청 알부민(HSA) [4]; HSA, CSA, RSA, MSA, DSA): RSA ≥ HSA/CSA > MSA/DSA
Affinity (KD) compared with PEP06923 (인간 혈청 알부민(HSA) [4]; albumins of the tested species, same order of magnitude): 같거나 약간 낮다
KD for HSA (인간 혈청 알부민(HSA) [4]; range stated over all five species): 높은 친화성(KD가 피코몰 미만으로부터 나노몰 미만까지의 범위에 속함)
Alpha helix content after heat treatment, pH 4.0 ([5]; 90℃, 12 min, PBS pH 4.0): 약간 감소
Alpha helix content after heat treatment, pH 7.2 ([5]; 90℃, 12 min, PBS pH 7.2): 어떠한 변화도 없었다
Effect of short heating to 90℃ on structure (CD spectra before/after) ([5]; temperature gradient 20-90℃, pH 4 or pH 7.2 buffer): 전혀 영향을 미치지 않았다
HSA binding capacity after heat treatment (HSA): 약간 떨어뜨렸다

From patent publication KR20130034043A, “폴리펩타이드” (애피바디 에이비, priority 2010, dated 2013)
